# In PMC9647470:
# B1: Casein kinase 2 alpha (CK2α): OSMI-4b (protein)
# parent chain: MSGPVPSRARVYTDVNTHRPREYWDYESHVVEWGNQDDYQLVRKLGRGKYSEVFEAINITNNEKVVVKILKPVKKKKIKREIKILENLRGGPNIITLADIVKDPVSRTPALVFEHVNNTDFKQLYQTLTDYDIRFYMYEILKALDYCHSMGIMHRDVKPHNVMIDHEHRKLRLIDWGLAEFYHPGQEYNVRVASRYFKGPELLVDYQMYDYSLDMWSLGCMLASMIFRKEPFFHGHDNYDQLVRIAKVLGTEDLYDYIDKYNIELDPRFNDILGRHSRKRWERFVHSENQHLVSPEALDFLDKLLRYDHQSRLTAREAMEHPYFYTVVKDQARMGSSSMPGGSTPVSSANMMSGISSVPTPSPLGPLAGSPVIAAANPLGMPVPAAAGAQQ
# Assay: cycloheximide chase, endogenous CK2α, HEK293T
# Settings: glycan lost; control: untreated
protein,measurement,value
B1,degradation_or_half_life,no change
